Data: patent US20200071424A1 (SHIONOGI, published 2020)
Values belong to the binder of their own block, whether it stands above or below them.

Columns and labels:
[1] = molecular target: T1, human EL (vascular endothelial lipase) (human, UniProt Q9Y5X9 21-500); assay: cell-based or functional assay
T1 sequence: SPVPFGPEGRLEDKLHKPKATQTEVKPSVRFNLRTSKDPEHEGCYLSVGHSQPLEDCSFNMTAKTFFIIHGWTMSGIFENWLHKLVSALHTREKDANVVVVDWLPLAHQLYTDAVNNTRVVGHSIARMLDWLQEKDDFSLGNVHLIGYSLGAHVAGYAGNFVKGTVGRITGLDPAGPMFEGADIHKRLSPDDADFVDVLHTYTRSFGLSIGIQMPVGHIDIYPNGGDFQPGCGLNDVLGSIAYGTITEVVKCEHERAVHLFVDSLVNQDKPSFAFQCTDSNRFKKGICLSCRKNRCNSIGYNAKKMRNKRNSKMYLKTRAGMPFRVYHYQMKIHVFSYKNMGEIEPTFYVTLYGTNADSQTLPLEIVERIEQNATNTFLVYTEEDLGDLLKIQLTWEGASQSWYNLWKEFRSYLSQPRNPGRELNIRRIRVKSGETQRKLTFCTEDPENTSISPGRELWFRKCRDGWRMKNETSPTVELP

[2] = molecular target: T2, human [1-305]-mouse chimeric EL (human; mouse, UniProt Q9WVG5 306-500); assay: Biacore; EL captured by anti-C2-tag Ab; bivalent fit
T2 construct: Heparin extract, captured or detected by an anti-C2-tag antibody; also called human-mouse chimeric EL
T2 sequence: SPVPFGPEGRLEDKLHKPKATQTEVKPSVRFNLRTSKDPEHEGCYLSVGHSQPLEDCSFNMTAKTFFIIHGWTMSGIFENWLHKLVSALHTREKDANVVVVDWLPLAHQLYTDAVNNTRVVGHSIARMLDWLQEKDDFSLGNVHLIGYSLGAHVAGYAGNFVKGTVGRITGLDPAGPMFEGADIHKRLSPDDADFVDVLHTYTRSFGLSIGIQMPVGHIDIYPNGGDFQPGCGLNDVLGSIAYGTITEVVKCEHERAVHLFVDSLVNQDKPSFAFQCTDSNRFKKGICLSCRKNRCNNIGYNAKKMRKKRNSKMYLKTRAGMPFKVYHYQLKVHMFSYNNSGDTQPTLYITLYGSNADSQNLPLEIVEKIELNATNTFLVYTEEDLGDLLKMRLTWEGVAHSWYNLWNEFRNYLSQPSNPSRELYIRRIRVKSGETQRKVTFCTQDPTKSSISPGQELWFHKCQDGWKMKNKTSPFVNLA
Experimental: (§1) The binding affinities of anti-EL antibodies were measured using Biacore. […] Then, anti-EL humanized antibodies were added and the binding affinities were calculated by bivalent fitting of BIAevaluation software.

cynomolgus monkey EL [3] = molecular target: T3, cynomolgus monkey EL (cynomolgus monkey); assay: as above
T3 construct: Heparin extract; also called cynomolgus EL; Cynomolgus EL
Experimental: as §1

[4] = molecular target: T2, human [1-305]-mouse chimeric EL; assay: cell-based or functional assay
cynomolgus monkey EL [5] = molecular target: T3, cynomolgus monkey EL; assay: cell-based or functional assay
[6] = molecular target: T4, human HL (hepatic lipase) (human, UniProt P11150 23-499); assay: cell-based or functional assay
T4 sequence (looked up): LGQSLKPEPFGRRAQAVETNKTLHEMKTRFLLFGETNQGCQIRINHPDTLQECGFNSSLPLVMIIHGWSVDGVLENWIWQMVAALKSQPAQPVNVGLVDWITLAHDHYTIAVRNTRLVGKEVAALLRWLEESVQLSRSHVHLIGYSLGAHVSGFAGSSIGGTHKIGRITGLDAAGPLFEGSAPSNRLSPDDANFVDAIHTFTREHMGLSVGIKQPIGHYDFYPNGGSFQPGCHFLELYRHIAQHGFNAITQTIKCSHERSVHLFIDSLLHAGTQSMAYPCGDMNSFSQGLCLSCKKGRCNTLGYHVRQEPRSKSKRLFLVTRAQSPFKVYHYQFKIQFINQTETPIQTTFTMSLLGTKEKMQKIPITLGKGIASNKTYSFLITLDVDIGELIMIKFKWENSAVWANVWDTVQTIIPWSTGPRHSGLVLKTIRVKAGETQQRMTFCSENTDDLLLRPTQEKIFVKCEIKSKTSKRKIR

[7] = molecular target: T5, human LPL (lipoprotein lipase) (human, UniProt P06858 28-475); assay: cell-based or functional assay
T5 sequence (looked up): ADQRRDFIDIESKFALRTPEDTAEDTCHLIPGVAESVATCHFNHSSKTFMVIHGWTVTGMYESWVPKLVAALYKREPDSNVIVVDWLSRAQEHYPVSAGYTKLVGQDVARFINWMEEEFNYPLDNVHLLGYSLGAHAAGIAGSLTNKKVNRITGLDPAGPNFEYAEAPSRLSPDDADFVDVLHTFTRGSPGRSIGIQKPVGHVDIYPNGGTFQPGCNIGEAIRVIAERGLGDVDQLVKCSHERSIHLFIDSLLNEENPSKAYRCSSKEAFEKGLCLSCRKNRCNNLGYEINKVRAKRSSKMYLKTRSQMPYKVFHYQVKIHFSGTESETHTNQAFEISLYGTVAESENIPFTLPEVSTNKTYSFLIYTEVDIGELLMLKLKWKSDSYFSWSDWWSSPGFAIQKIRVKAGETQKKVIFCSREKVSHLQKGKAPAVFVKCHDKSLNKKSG

Neutralizing activity IC50 [1]: 3.9 nM
Kd [2]: 31 nM
koff [2]: 0.00086 s⁻¹
kon [2]: 27000 M⁻¹ s⁻¹
Kd (cynomolgus monkey EL [3]): 0.59 nM
koff (cynomolgus monkey EL [3]): 0.00026 s⁻¹
kon (cynomolgus monkey EL [3]): 440000 M⁻¹ s⁻¹
Neutralizing activity IC50 [4]: 2.2 nM
Neutralizing activity IC50 (cynomolgus monkey EL [5]): 1.6 nM
Neutralizing activity IC50 [6]: > 1800 nM
Neutralizing activity IC50 [7]: > 1800 nM
B1: h55A1-S1 (antibody, V domains shown)
VH: QVQLVQSGSELKKPGASVKVSCKASGYTFTNYGMNWVRQAPGQGLEWMGWINTYSGVPTYAGDFKGRFVFSLDTSVSTAYLQISSLKAEDTAVYYCARRGYYGRRYFDVWGKGTTVTVSS
VL: DIVLTQSPASLAVSPGQRATITCKASQSVDYDVDSYMHWYQQKPGQPPKLLIYAASNLASGVPARFSGSGSGTDFTLTINPVEANDTANYYCQQTIEDPPTFGGGTKVEIK
notes: humanized

Neutralizing activity IC50 [1]: 4.5 nM
Neutralizing activity IC50 [4]: 1.7 nM
Neutralizing activity IC50 [6]: > 400 nM
Neutralizing activity IC50 [7]: > 400 nM
B2: h23H8-S2 (antibody, V domains shown)
VH: QVQLVQSGAEVKKPGASVKVSCKASGYTFTDNTIHWVRQAPGQGLEWMGHINPYYGGTNNNEKFKDRVTMTRDTSISTAYMELSRLRSDDTAVYYCARKGIYYSSPFDYWGQGTTVTVSS
VL: DIQMTQSPSSLSASVGDRVTITCRASQDINNYLNWYQQKPGKAPKLLISYTSKLHSGVPSRFSGSGSGTDFTLTISSLQREDFATYYCQQGNTLPFTFGQGTKLEIK

Neutralizing activity IC50 [1]: 9.7 nM
Neutralizing activity IC50 [4]: 2.1 nM
Neutralizing activity IC50 [6]: > 400 nM
Neutralizing activity IC50 [7]: > 400 nM
B3: h53A11-S1 (antibody, V domains shown)
VH: QVQLVQSGAEVKKPGASVKVSCKASGYTFTDYTMHWVRQAPGQRLEWMGGINPYYGGTTYNEKFKDRVTITRDTSASTAYMELSSLRSEDTAVYYCAKGDYYGGSYNYWGQGTTVTVSS
VL: EIVMTQSLATLSVSPGERATLSCRASQDISNSLHWYQQKPGQAPRLLIKYASQSISGIPARFSGSGSGTEFTLTISSLQSEDFAVYYCQQSNSWPYTFGQGTKLEIK

Neutralizing activity IC50 [1]: 4.6 nM
Kd [2]: 9.3 nM
koff [2]: 0.00022 s⁻¹
kon [2]: 24000 M⁻¹ s⁻¹
Kd (cynomolgus monkey EL [3]): 2 nM
koff (cynomolgus monkey EL [3]): 0.0001 s⁻¹
kon (cynomolgus monkey EL [3]): 51000 M⁻¹ s⁻¹
Neutralizing activity IC50 [4]: 5.3 nM
Neutralizing activity IC50 (cynomolgus monkey EL [5]): 1.9 nM
Neutralizing activity IC50 [6]: > 400 nM
Neutralizing activity IC50 [7]: > 400 nM
B4: h16B3-S2 (antibody, V domains shown)
VH: EVQLVESGGGLVQPGGSLRLSCAASGFTFSGYTMSWVRQAPGKGLEWVSEISFARDRAFYPDTVKGRFTISRDNSKNTLYLQMNSLRAEDTAVYYCARLGGRNHDYWYFDVWGQGTTVTVSS
VL: DIVMTQSPDSLAVSLGERATINCRASESVEYYGTSLMQWYQQKPGQPPKLLIYAASNVESGVPDRFSGSGSGTDFTLTISSLQAEDVAVYYCQQSWKVPFTFGQGTKLEIK
notes: humanized

Neutralizing activity IC50 [1]: 2.3 nM
Neutralizing activity IC50 [4]: 3 nM
Neutralizing activity IC50 [6]: > 400 nM
Neutralizing activity IC50 [7]: > 400 nM
B5: h13B3-S1 (antibody, V domains shown)
VH: QVQLVQSGAEVKKPGASVKVSCKASGYTFTEYTMHWVRQAPGQGLEWMGSINPYYGGTSYNEKFKDRVTMTRDTSTSTVYMELSSLRSEDTAVYYCARYGNYVGYFDYWGQGTTVTVSS
VL: EIVLTQSPGTLSLSPGERATLSCRASSSVHYMYWYQQKPGQAPRLLIYYTSNLAPGIPDRFSGSGSGTDFTLTISRLEPEDFAVYYCQQFTSSPYTFGGGTKVEIK
